According to PMC5428233, “Cross-beta nanostructures based on dinaphthylalanine Gd-conjugates loaded with doxorubicin” (Scientific Reports, 2017):

Legend:
Type in all cases: physicochemical
[1] = Aggregation by 1D 1H NMR at increasing concentration; conditions: H2O/D2O 90/10 v/v
Source text: This trend was also confirmed by ^1HNMR measurements (see Figure S4). We have recently analyzed the conformational properties of DOTA-L6-F4 in aqueous solution by mono- and multi-dimensional, homo- and hetero-nuclear NMR techniques. In the present work we have used a similar approach and thus implemented 1D [^1H] and 2D [^1H, ^1H] NMR spectroscopy to study two different compounds: DOTA-L6-F2 and 2Nal2 analogue in absence and in presence of the DOTA coordinated metal ion lanthanum (III), La. We used lanthanum (III) since it gives rise to a NMR “easy to handle” diamagnetic complex. Both DOTA-L6-F2 and 2Nal2 present low aggregation propensities. […] In detail by comparing spectra recorded at 0.3 mg/mL and 5.0 mg/mL chemical shift changes appear relevant in the spectral regions between 8.0 and 8.2 ppm, where signals from HN amide protons are present and between 3.0 and 3.5 ppm where several peaks overlap (Table S1). […]
NMR experiments were acquired in the temperature range of 298–303 K on either a Varian Unity Inova 600 MHz spectrometer provided with a cold probe or a 400 MHz Varian instrument provided with a 5-mm triple resonance probe and z-axis pulsed-field gradients. […] The DOTA-L6-F2 was analyzed in the concentration range 0.3 mg/mL (i.e., 0.3 mM)–5.0 mg/mL (i.e., 4.8 mM); for the La-DOTA-L6-F2 the examined concentration range was 0.3 mg/mL (i.e., 0.3 mM)–10.0 mg/mL (i.e., 8.5 mM). […]

[2] = Water proton relaxation measurements / NMRD profiles; conditions: aqueous solution, 298 K
Source text: The paramagnetic relaxivity (r1p) of Gd (III) complexes is given by:1 r1p∝1/T1MH=Kf(τR) where K is a constant related to the strength of the dipolar interaction between the protons and the electronic magnetic moment, and τR is the correlation time associated with the reorientation of the Gd-H magnetic vector. This means that slowly moving high molecular weight systems are endowed with higher relaxivity than rapidly reorienting low molecular weight ones. In the case of self assembling Gd-containing systems, the extent of aggregation may be evaluated through the measure of the water proton longitudinal relaxation rate of its aqueous solution. In Fig. 8 are reported the NMRD (Nuclear Magnetic Resonance Dispersion) profiles of Gd-2Nal2 acquired at 21.5 MHz (0.5 T) and 298 K as a function of the complex concentration. […] At concentrations higher than 10–15 mg/mL the relaxivity assumes an almost stable value which corresponds to the system in the completely aggregated form. By analyzing the profile of the relaxivity data as a function of the applied field strength (NMRD - Nuclear Magnetic Relaxation Dispersion) it is possible to obtain an accurate determination of the reorientational correlation time (τR)[16], that is strictly related to the molecular size of the investigated system. NMRD profiles were acquired below (black circles) and above (white ones) the CAC values determined by ANS titration and ^1HNMR. […] Data were analyzed using the Solomon-Bloembergen-Morgan model, [18], considering one water molecule in the inner coordination sphere (q = 1) and fixing the exchange lifetime (τM) to a reliable value ([…]) on the basis of those previously reported for mono-amido DOTA derivatives[19]–[22]. The quantitative analysis of the NMRD profile of the aggregated form was not satisfactory when the simple inner- outer-sphere model was used, so the Lipari-Szabo approach was used for the description of the rotational dynamics. This model allows one to take into account the presence ofa certain degree of internal rotation superimposed on the overall tumbling motion, [24]. These two types ofmotion, a relatively fast local rotation of the coordination cage about the linker to the peptide scaffold superimposed on the global reorientation of the system, are characterized by different correlation times: τR ^l and τR ^g, respectively. The degree of correlation between global and local rotations is given by the parameter S^2, which takes values between 0 (completely independent motions) and 1 (entirely correlated motions).
Measure of R1 (longitudinal water proton relaxation rates) of Gd-2Nal2 were carried out on a Stelar Spinmaster spectrometer (Pavia, Italy) operating at 0.5 T which corresponds to 21.5 MHz Proton Larmor Frequency. R1 (1/T1) values were measured at 298 K by mean of the standard inversion-recovery technique. For the measure of the proton 1/T1 NMRD (Nuclear Magnetic Resonance Dispersion) profiles, a fast field-cycling Stelar relaxometer, operating over a continuum of magnetic field strengths from 0.00024 to 0.47 T (corresponding to 0.01–20 MHz proton Larmor frequencies) was used. The temperature was set at 298 K. The relaxometer is computer controlled and the absolute uncertainty is 1/T1 ± 1%. Additional data points were obtained on a Stelar Spinmaster spectrometer coupled to an electromagnet tunable at different Larmor Frequencies between 21.5 and 70 MHz. Experimental temperature control was obtained with an air-flow heater (Stelar VTC-91) endowed of a copper constantan thermocouple (uncertainty 0.1 °C). A previously reported relaxometric method[39] was used for the determination of the concentrations of the solutions used for the relaxometric characterization. The conventional Solomon-Bloembergen-Morgan theory was used for fitting of experimental data.

[3] = Self-aggregation by intrinsic naphthyl fluorescence (intensity decrease, excimer peak); conditions: water, room temperature, excitation 280 nm
Method: Self-organization of the peptide conjugates at the atomic level was further characterized also in solution with fluorescence, UV-Vis, ^1HNMR, CD and FTIR spectroscopies. […] From ispection of Fig. 1b, the typical emission spectrum of the 2-naphthyl group with three maxima at 325, 340 and 355 nm, respectively, can be detected.
The determination of CAC (critical aggregate concentration) values was determined as previously described[6] by the titration of the fluorescent probe ANS (8-anilino-1-naphthalene sulfonic acid ammonium salt)[28], [29] with the peptide conjugates[30].

[4] = Transmission electron microscopy of self-assembled conjugates; conditions: 5.0 mg/mL solution dried on grid, phosphotungstic acid stain
Method: Self-assembled peptide conjugate at 5.0 mg/mL, as free base or as metal complex, was initially characterized using TEM. […] The presence of a diffraction pattern both in SAXS and in WAXS is fingerprint of a hierarchical organization of the molecules in fibers from the atomic to the nanoscale.
TEM images were acquired by LaMest (Pozzuoli, Italy) with a FEI TECNAI G12 Spirit-Twin microscope (LaB6 source) endowed of a bottom mounted FEI Eagle-4k CCD camera (Eindhoven, The Netherlands), working at 120 kV.

## DOTA-L6-F2 [reference compound]
[1]; 298-303 K
  concentration at which aggregation appears in 1H NMR spectra (spectral changes / line broadening): higher than 1.2 mg/mL

## Gd-DOTA-L6-F2 [reference compound]
[2]; complex at 1 mg/mL
  r1p (longitudinal proton relaxivity): 5.7 mM⁻¹ s⁻¹
[2]; complex at 25 mg/mL (nanoaggregates), text: at 20 MHz
  r1p (longitudinal proton relaxivity): 6.0 mM⁻¹ s⁻¹

## DOTA-L6-(2Nal)2 [2Nal2]
[3]
  concentration of appearance of the excimer peak (380-430 nm) / formation of stable aggregates: above 2.0 mg/mL
[3]; 0.025-20.0 mg/mL range
  concentration at which self-aggregation begins (decrease of fluorescence intensity): 200 to 500 µg/mL
[1]; 2Nal2 0.1-5.0 mg/mL, La-DOTA-L6-F2 0.3-10.0 mg/mL
  aggregation propensity by 1H NMR (in words): cannot reveal significant aggregation
[4]
  supramolecular aggregation / morphology in TEM images: long fibrillary nanostructures
